Results published in publication PMC7957537 (2021).

Experiments:
[1] = target: T1, recombinant human VEGFR2 (human, UniProt P35968 20-764); experiment: SPR
T1 chain: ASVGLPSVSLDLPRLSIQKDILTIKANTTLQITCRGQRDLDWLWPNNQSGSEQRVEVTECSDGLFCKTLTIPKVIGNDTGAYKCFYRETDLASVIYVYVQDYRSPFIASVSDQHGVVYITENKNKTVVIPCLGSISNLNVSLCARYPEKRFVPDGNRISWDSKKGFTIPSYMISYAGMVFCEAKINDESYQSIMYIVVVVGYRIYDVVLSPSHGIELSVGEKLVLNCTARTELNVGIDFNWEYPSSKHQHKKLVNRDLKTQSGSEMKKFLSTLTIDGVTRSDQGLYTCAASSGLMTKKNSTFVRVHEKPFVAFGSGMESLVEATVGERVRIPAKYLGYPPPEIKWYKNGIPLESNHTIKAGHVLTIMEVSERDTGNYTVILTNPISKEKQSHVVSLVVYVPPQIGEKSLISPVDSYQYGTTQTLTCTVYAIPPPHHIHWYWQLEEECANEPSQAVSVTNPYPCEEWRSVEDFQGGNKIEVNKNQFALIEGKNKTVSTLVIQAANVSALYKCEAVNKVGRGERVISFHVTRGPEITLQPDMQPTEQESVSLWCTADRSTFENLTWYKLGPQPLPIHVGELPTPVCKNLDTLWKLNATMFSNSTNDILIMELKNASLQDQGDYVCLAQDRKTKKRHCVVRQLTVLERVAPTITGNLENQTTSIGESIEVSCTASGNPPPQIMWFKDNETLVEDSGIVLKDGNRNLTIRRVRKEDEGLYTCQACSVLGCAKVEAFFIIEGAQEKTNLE

[2] = target: T1, recombinant human VEGFR2; experiment: SPR

koff [1]: 0.000102 s⁻¹
Kd [2]: 0.949 nM
B1: ramucirumab (Cyramza) (antibody, V domains shown)
VH: EVQLVQSGGGLVKPGGSLRLSCAASGFTFSSYSMNWVRQAPGKGLEWVSSISSSSSYIYYADSVKGRFTISRDNAKNSLYLQMNSLRAEDTAVYYCARVTDAFDIWGQGTMVTVSS
VL: DIQMTQSPSSVSASIGDRVTITCRASQGIDNWLGWYQQKPGKAPKLLIYDASNLDTGVPSRFSGSGSGTYFTLTISSLQAEDFAVYFCQQAKAFPPTFGGGTKVDIK
